Data from US12241094B2, “Phenazine degrading agents and related compositions, methods and systems for interfering with viability of bacteria” (priority 2016, dated 2025).
“Also recorded” adds a separate entry of the source.

System: P. aeruginosa biofilm aggregates
Experiment: Biofilm aggregates embedded in agar blocks (anoxic fitness)
Format: cell-based
Conditions: 22 hours growth then 5 hour treatment, 2 μg mL^−1; ~300 μm and deeper below agar surface
Method: Biofilm aggregate experiments. To test the effect of oxygen limitation in the presence of PodA30-162, biofilm aggregates were grown embedded in 0.5% noble agar blocks containing succinate minimal medium. Cultures were grown overnight to stationary phase in LB, washed once with succinate minimal medium, and resuspended to OD600 1.0. Samples were diluted 1:100 in agar at 44° C. and 175 μL was transferred to Nunc Lab-Tek chambered coverglass slides (8-well, 0.7 cm^2 area, supplier #155409). […] SYTO-9 from the LIVE/DEAD stain kit was used in place of DAPI to minimize background fluorescence. […] Biomass was quantified in ImageJ software (60) by identifying the Z-slice with the highest average fluorescent intensity (generally […] the agar surface), and setting the pixel threshold using the default ImageJ thresholding parameters at the Z-slice equivalent to the 100 μm depth. The number of particles in each slice of the Z-stack was determined using this threshold value and counting particles >10 μm^2 in area. […] Particle numbers for each slice were averaged between independent experiments and plotted against depth to quantify biofilm aggregates. […]
Oxygen diffusion modeling. […] Given these values, average cell number per mL was estimated by dividing the volume of total detected biofilm aggregates by the average volume of a P. aeruginosa cell (62) yielding a cell density estimate of 5×10^8. […]

B1: PodA30-162: truncated pyocyanin demethylase encoded by MFORT_14352 of Mycobacterium fortuitum lacking N-terminal helix, SEQ ID NO: 2 (protein, listed as Mycobacterium fortuitum)
chain: MDGRGGRSTTEPVTMTLDVKNDQVAKHDFGKPGMDVGDMDIFSDILSVDGKQVGYDGGACFFTNVTPDNPMTYCELTIHLDAGEIFARSLTPHTLAPFTMAITGGTGEYANSKGELTVSGVATPDEKYELKLTKAENLYFQ
detectable biofilm aggregates at anoxic depths: sharper decline in detectable aggregates; also recorded: apparent biomass defect specifically at anoxic depths
